Data reported in paper PMC8920847.

Biological target: His-tagged recombinant AjBNIP3 (rAjBNIP3) (Apostichopus japonicus)
Experiment: MST

**Q.** Recombinant His-AjLC3 (natural protein) was tested. Which Kd did it give?
**A.** The Kd was 2820 nM.
